# Laboratory results as given in patent US20230364193A1, “COMBINED DRUG FOR TREATING CORONARIVUS DISEASE 2019” (SICHUAN UNIVERSITY WEST CHINA HOSPITAL, priority 2020, published 2023).
# Read-outs that look alike come from different tables or passages of the source.
# Columns and labels:
# [1] = test system: SARS-CoV-2 virus; assay: microbe, parasite or virus in culture; details: Vero-E6
# [2] = test system: patients with moderate or severe COVID-19; details: for clinical improvement rate day 28, (%): called clinical remission rate in b66; for Time for clinical improvement (days), median: called clinical remission; for Time for radiographic improvement (days), median: chest CT, absorption of inflammation; for Time for Viral nucleic acid to turn negative (days), median: real-time fluorescence quantitative PCR; for serious adverse reaction (cases): safety analysis set, the IFN-α case was respiratory failure
# [3] = test system: SARS-CoV-2 virus; details: for EC50 Experiment 1 / EC50 Experiment 2 / EC50 Experiment 3 / EC50 means: Vero-E6; for EC50 means: mean of 3 experiments
# [4] = test system: Vero-E6 cells; assay: Cytotoxicity assay on Vero-E6 cells (CCK-8, 48 hours)
# Method: • 1) Vero-E6 cells were inoculated in a 96-well plate at 1×10^4 cells per well the day before; • 2) The cell state was observed until the confluence reached about 50%. The rSIFN-co was diluted by 2.17-fold with 2×DMEM medium containing 4% […], as the highest concentration, namely 6×10^8 pg/ml.
# The plates were cultured in an incubator at 37° C. and 5% CO2; • 4) 48 hours after adding the drug, 1/10 volume of Cell Counting […] (CCK-8) was directly added to the cell culture medium, mixed well, and air bubbles should be avoided. Cells were incubated in an incubator at 37° C. for 1 hour until the color turned into orange. The blank group was set as zero, and the absorbance at 450 nm was measured with a multifunctional microplate reader, and the survival rate was calculated as follows: survival rate (%)=OD450 of the test group/OD450 of the control group×100%.
# [5] = day 7, percent of group, added to baseline treatment
# [6] = day 14, percent of group, added to baseline treatment
# [7] = day 28, percent of group, added to baseline treatment
molecule,measurement,setting,value
CCN(CC)CCCC(C)Nc1ccnc2cc(Cl)ccc12 (stereo not shown) [Chloroquine],EC50,"[1]; Severe acute respiratory syndrome coronavirus 2, Vero C1008, read-out: EC50 Experiment 1, MOI: 0.005 (50 PFU)",1.7 µM
same,EC50,"[1]; Severe acute respiratory syndrome coronavirus 2, Vero C1008, read-out: EC50 Experiment 1, MOI: 0.05 (500 PFU)",3.65 µM
same,EC50,"[1]; Severe acute respiratory syndrome coronavirus 2, Vero C1008, read-out: EC50 Experiment 1, MOI: 0.5 (5000 PFU)",5.25 µM
same,EC50,"[1]; Severe acute respiratory syndrome coronavirus 2, Vero C1008, read-out: EC50 Experiment 2, MOI: 0.005 (50 PFU)",1.77 µM
same,EC50,"[1]; Severe acute respiratory syndrome coronavirus 2, Vero C1008, read-out: EC50 Experiment 2, MOI: 0.05 (500 PFU)",4.23 µM
same,EC50,"[1]; Severe acute respiratory syndrome coronavirus 2, Vero C1008, read-out: EC50 Experiment 2, MOI: 0.5 (5000 PFU)",5.72 µM
same,EC50,"[1]; Severe acute respiratory syndrome coronavirus 2, Vero C1008, read-out: EC50 Experiment 3, MOI: 0.005 (50 PFU)",2.34 µM
same,EC50,"[1]; Severe acute respiratory syndrome coronavirus 2, Vero C1008, read-out: EC50 Experiment 3, MOI: 0.05 (500 PFU)",2.34 µM
same,EC50,"[1]; Severe acute respiratory syndrome coronavirus 2, Vero C1008, read-out: EC50 Experiment 3, MOI: 0.5 (5000 PFU)",5.04 µM
same,EC50,"[1]; Severe acute respiratory syndrome coronavirus 2, Vero C1008, read-out: EC50 means, MOI: 0.005 (50 PFU), mean of 3 experiments",1.94 µM
same,EC50,"[1]; Severe acute respiratory syndrome coronavirus 2, Vero C1008, read-out: EC50 means, MOI: 0.05 (500 PFU), mean of 3 experiments",3.41 µM
same,EC50,"[1]; Severe acute respiratory syndrome coronavirus 2, Vero C1008, read-out: EC50 means, MOI: 0.5 (5000 PFU), mean of 3 experiments",5.34 µM
IFN-α,"Radiographic Improvement Rate Day 7, (%)",[2]; Day 7,(25.0) %
same,"Rate for Viral nucleic acid to turn negative Day 7, (%)",[2]; Day 7,(31.3) %
same,"Radiographic Improvement Rate Day 14, (%)",[2]; Day 14,(66.7) %
same,"Rate for Viral nucleic acid to turn negative Day 14, (%)",[2]; Day 14,(64.6) %
same,"Radiographic Improvement Rate Day 28, (%)",[2]; Day 28,(79.2) %
same,"Rate for Viral nucleic acid to turn negative Day 28, (%)",[2]; Day 28,(85.4) %
same,"clinical improvement rate day 7, (%)",[2]; day 7,(6.3) %
same,"7-level scale on day 7, 2: Not hospitalized, but unable to return to normal activities, (%)",[2]; [5],(12.5) %
same,"7-level scale on day 7, 3: Hospitalized, no need for supplemental oxygen, (%)",[2]; [5],(25.0) %
same,"7-level scale on day 7, 4: Hospitalized, requiring supplemental oxygen, (%)",[2]; [5],(43.8) %
same,"7-level scale on day 7, 5: Hospitalized, requiring nasal high-flow oxygen therapy or non-invasive mechanical ventilation, (%)",[2]; [5],(16.7) %
same,"7-level scale on day 7, 6: Hospitalized, requiring extracorporeal membrane oxygenation, invasive mechanical ventilation, or both, (%)",[2]; [5],(2.0) %
same,"clinical improvement rate day 14, (%)",[2]; day 14,(39.6) %
same,"7-level scale on day 14, 2: Not hospitalized, but unable to return to normal activities, (%)",[2]; [6],(43.8) %
same,"7-level scale on day 14, 3: Hospitalized, no need for supplemental oxygen, (%)",[2]; [6],(31.2) %
same,"7-level scale on day 14, 4: Hospitalized, requiring supplemental oxygen, (%)",[2]; [6],(16.7) %
same,"7-level scale on day 14, 5: Hospitalized, requiring nasal high-flow oxygen therapy or non-invasive mechanical ventilation, (%)",[2]; [6],(6.3) %
same,"7-level scale on day 14, 6: Hospitalized, requiring extracorporeal membrane oxygenation, invasive mechanical ventilation, or both, (%)",[2]; [6],(2.0) %
same,"clinical improvement rate day 28, (%)",[2]; day 28,77.1%
same,"clinical improvement rate day 28, (%)","[2]; day 28, listed as IFN- α",(77.1) %
same,"7-level scale on day 28, 2: Not hospitalized, but unable to return to normal activities, (%)",[2]; [7],(91.6) %
same,"7-level scale on day 28, 3: Hospitalized, no need for supplemental oxygen, (%)",[2]; [7],(2.1) %
same,"7-level scale on day 28, 4: Hospitalized, requiring supplemental oxygen, (%)",[2]; [7],(4.2) %
same,"7-level scale on day 28, 6: Hospitalized, requiring extracorporeal membrane oxygenation, invasive mechanical ventilation, or both, (%)",[2]; [7],(2.1) %
same,"Deterioration rate, (%)","[2]; human, in vivo",(2.1) %
same,"Time for clinical improvement (days), median",[2]; added to baseline treatment,14.0 days
same,"Time for radiographic improvement (days), median",[2],10.0 days
same,"Time for Viral nucleic acid to turn negative (days), median",[2],10.0 days
same,serious adverse reaction (cases),[2],1
"rSIFN-co: new type of genetically engineered interferon produced by changing 65 bases of the genetic code of IFN-α; amino acid sequence SEQ ID NO.2 (protein, rSIFN-co Synthetic amino acid sequence) MCDLPQTHSLGNRRALILLAQMRRISPFSCLKDRHDFGFPQEEFDGNQFQKAQAISVLEMIQQTFNLFSTKDSSAAWDESLLEKFYTELYQQLNDLEACVIQEVGVEETPLMNVDSILAVKKYFQRITLYLTEKKYSPCAWEVVRAEIMRSFSLSTNLQERLRRKE",TI (CC50/EC50),[3]; MOI: 0.005 (50 PFU),5.35×10^7
same,EC50 Experiment 1,[3]; MOI: 0.005 (50 PFU),0.01531 ng/mL
same,EC50 Experiment 2,[3]; MOI: 0.005 (50 PFU),0.01401 ng/mL
same,EC50 Experiment 3,[3]; MOI: 0.005 (50 PFU),0.01058 ng/mL
same,EC50 means,[3]; MOI: 0.005 (50 PFU),0.0133 ng/mL
same,TI (CC50/EC50),"[3]; MOI: 0.005 (50 PFU), listed as Recombinant super-compound interferon (rSIFN-co)",5.35 × 10^7
same,TI (CC50/EC50),[3]; MOI: 0.05 (500 PFU),5.77×10^6
same,EC50 Experiment 1,[3]; MOI: 0.05 (500 PFU),0.1418 ng/mL
same,EC50 Experiment 2,[3]; MOI: 0.05 (500 PFU),0.1257 ng/mL
same,EC50 Experiment 3,[3]; MOI: 0.05 (500 PFU),0.1024 ng/mL
same,EC50 means,[3]; MOI: 0.05 (500 PFU),0.1233 ng/mL
same,TI (CC50/EC50),"[3]; MOI: 0.05 (500 PFU), listed as Recombinant super-compound interferon (rSIFN-co)",5.77 × 10^6
same,TI (CC50/EC50),[3]; MOI: 0.5 (5000 PFU),4.71×10^6
same,EC50 Experiment 1,[3]; MOI: 0.5 (5000 PFU),0.1886 ng/mL
same,EC50 Experiment 2,[3]; MOI: 0.5 (5000 PFU),0.1397 ng/mL
same,EC50 Experiment 3,[3]; MOI: 0.5 (5000 PFU),0.1253 ng/mL
same,EC50 means,[3]; MOI: 0.5 (5000 PFU),0.1512 ng/mL
same,TI (CC50/EC50),"[3]; MOI: 0.5 (5000 PFU), listed as Recombinant super-compound interferon (rSIFN-co)",4.71 × 10^6
same,inhibition of SARS-CoV-2 replication in Vero-E6 cell model,[3]; result in words,dose-dependent manner
same,"Radiographic Improvement Rate Day 7, (%)",[2]; Day 7,(43.5) %
same,"Rate for Viral nucleic acid to turn negative Day 7, (%)",[2]; Day 7,(50.0) %
same,"Radiographic Improvement Rate Day 7, differences (rate difference)","[2]; Day 7, rSIFN-co vs IFN-α",18.5
same,"Rate for Viral nucleic acid to turn negative Day 7, differences (rate difference)","[2]; Day 7, rSIFN-co vs IFN-α",18.7
same,"Radiographic Improvement Rate Day 14, (%)",[2]; Day 14,(84.8) %
same,"Rate for Viral nucleic acid to turn negative Day 14, (%)",[2]; Day 14,(76.1) %
same,"Radiographic Improvement Rate Day 14, differences (rate difference)","[2]; Day 14, rSIFN-co vs IFN-α",18.1
same,"Rate for Viral nucleic acid to turn negative Day 14, differences (rate difference)","[2]; Day 14, rSIFN-co vs IFN-α",11.5
same,"Radiographic Improvement Rate Day 28, (%)",[2]; Day 28,(91.3) %
same,"Rate for Viral nucleic acid to turn negative Day 28, (%)",[2]; Day 28,(97.8) %
same,"Radiographic Improvement Rate Day 28, differences (rate difference)","[2]; Day 28, rSIFN-co vs IFN-α",12.1
same,"Rate for Viral nucleic acid to turn negative Day 28, differences (rate difference)","[2]; Day 28, rSIFN-co vs IFN-α",12.4
same,"clinical improvement rate day 7, (%)",[2]; day 7,(10.9) %
same,"7-level scale on day 7, 2: Not hospitalized, but unable to return to normal activities, (%)",[2]; [5],(13.0) %
same,"7-level scale on day 7, 3: Hospitalized, no need for supplemental oxygen, (%)",[2]; [5],(19.6) %
same,"7-level scale on day 7, 4: Hospitalized, requiring supplemental oxygen, (%)",[2]; [5],(50.0) %
same,"7-level scale on day 7, 5: Hospitalized, requiring nasal high-flow oxygen therapy or non-invasive mechanical ventilation, (%)",[2]; [5],(17.4) %
same,"clinical improvement rate day 7, differences (rate difference)","[2]; day 7, rSIFN-co vs IFN-α",4.6
same,"clinical improvement rate day 14, (%)",[2]; day 14,(65.2) %
same,"7-level scale on day 14, 2: Not hospitalized, but unable to return to normal activities, (%)",[2]; [6],(58.7) %
same,"7-level scale on day 14, 3: Hospitalized, no need for supplemental oxygen, (%)",[2]; [6],(21.7) %
same,"7-level scale on day 14, 4: Hospitalized, requiring supplemental oxygen, (%)",[2]; [6],(17.4) %
same,"7-level scale on day 14, 5: Hospitalized, requiring nasal high-flow oxygen therapy or non-invasive mechanical ventilation, (%)",[2]; [6],(2.2) %
same,"clinical improvement rate day 14, differences (rate difference)","[2]; day 14, rSIFN-co vs IFN-α",25.6
same,"7-level scale on day 28, 2: Not hospitalized, but unable to return to normal activities, (%)",[2]; [7],(95.6) %
same,"7-level scale on day 28, 3: Hospitalized, no need for supplemental oxygen, (%)",[2]; [7],(2.2) %
same,"7-level scale on day 28, 4: Hospitalized, requiring supplemental oxygen, (%)",[2]; [7],(2.2) %
same,"clinical improvement rate day 28, differences (rate difference)","[2]; day 28, rSIFN-co vs IFN-α",16.4
same,"Time for clinical improvement (days), median",[2]; added to baseline treatment,11.5 days
same,"Time for radiographic improvement (days), median",[2],8.0 days
same,"Time for Viral nucleic acid to turn negative (days), median",[2],7.0 days
same,"Deterioration rate, differences (rate difference)",[2]; rSIFN-co vs IFN-α,−2.1
same,"Time for Viral nucleic acid to turn negative, differences (hazard ratio)","[2]; rSIFN-co vs IFN-α, Cox model",1.74
same,"Time for clinical improvement, differences (hazard ratio)","[2]; rSIFN-co vs IFN-α, Cox model",1.76
same,"Time for radiographic improvement, differences (hazard ratio)","[2]; rSIFN-co vs IFN-α, Cox model",2.19
same,serious adverse reaction (cases),[2],no serious adverse reaction
same,CC50 Experiment 1,[4],651000 ng/mL
same,CC50 Experiment 2,[4],806000 ng/mL
same,CC50 Experiment 3,[4],680000 ng/mL
same,CC50 means,[4]; mean of 3 experiments,712000 ng/mL
